Changes are numbered by the printed parent chain. Like-named read-outs stand apart in the source and are kept apart here.

Experiment in all cases: SPR, AAV on CM5 chip
On the technique in general: SPR reads the build-up and loss of mass on a sensor chip optically.

Experiment [1] addresses T1, AAV9 (adeno-associated virus serotype 9).
T1 construct: also called adeno-associated virus serotype 9

In experiment [2] the target is T2, AAV8 (adeno-associated virus serotype 8).
T2 construct: also called adeno-associated virus serotype 8

For experiment [3], the target named is T3, AAV5 (adeno-associated virus serotype 5).
T3 construct: also called adeno-associated virus serotype 5

In experiment [4] the target is T1, AAV9. The source holds these as a separate data set.
Method: (§1) AAV was amine-coupled to a CM5 sensor chip at a density of 500-800 response units (RU). Nanobodies were injected at seven concentrations (1-100 nM) with a flow rate of 45 μL/min, and chip regeneration was performed using glycine-HCl (pH 1.5). Binding curves at different nanobody concentrations were used to calculate kinetic parameters (Kₐ, Kd, KD) (Table 2 and FIG. 2).
In experiment [5] the target is T2, AAV8. The source holds these as a separate data set.
Method: as §1
Experiment [6] has as its target T3, AAV5. This is another data set of the same source.
Method: as §1
Another experiment has as its target T4, AAV2 (UniProt P03135 1-735).
T4 construct: also called adeno-associated virus serotype 2

Experiment [7] addresses T5, AAV5.
T5 construct: also called adeno-associated virus serotype 5
Method: as §1

The target in experiment [8] is T6, AAV9.
T6 construct: also called adeno-associated virus serotype 9
Method: as §1

Experiment [9] deals with T7, AAV8.
T7 construct: also called adeno-associated virus serotype 8
Method: as §1

Method for AAV2: as §1

B1: A4-H5 (VHH)
VHH: VQLQASGGGFVQPGGSLRLSCAASGRGFSINTMGWFRQAPGKERELVAVVTRGGTTYYADSVKGRFTISRDNSKNTVYLQMNSLRAEDTAVYYCHVDEVRQSSWTTSNLWGQGTQVTVSS
With B1, the Kd with AAV9 [1] stood at 1900 nM; with AAV8 [2], 302 nM; with AAV5 [3], 823 nM. Also, the koff with AAV9 [1] was determined as 0.0058 s⁻¹; in the experiment with AAV8 [2], 0.0013 s⁻¹; in the experiment with AAV5 [3], 0.00152 s⁻¹. For the same molecule, the values for the kon with AAV9 [1], with AAV8 [2] and with AAV5 [3] were 3050 M⁻¹ s⁻¹, 4300 M⁻¹ s⁻¹ and 1850 M⁻¹ s⁻¹, respectively.

B2: A4-H2 (VHH)
VHH: B1 VHH with G27S, L46F, T55S, V91T, V96I, L109I
As to B2, the Kd with AAV9 [1] was 400 nM; with AAV8 [2], 1.98 nM; with AAV5 [3], 8.51 nM. Moreover, the koff in the experiment with AAV9 [1] amounted to 0.00188 s⁻¹; with AAV8 [2] it was 0.00028 s⁻¹; with AAV5 [3], 0.00139 s⁻¹. The kon with AAV9 [1] came out at 4700 M⁻¹ s⁻¹; with AAV8 [2], 141000 M⁻¹ s⁻¹; in the experiment with AAV5 [3], 163000 M⁻¹ s⁻¹.

B3: A4-112 (VHH)
VHH: VQLQESGGGLVQTGGSLRLSCIASGSIFSINTVGWYRQAPPKQRELVATVTRAGSTWYAGSVKGRFTISRDNAKNTIYLQMNTLRPEDTAVYYCHVDEVRQSTWTTSNIWGQGTQVTVSS
Consider B3, for which the values for the Kd in the experiment with AAV9 [4], with AAV8 [5] and with AAV5 [6] were 36.6 nM, 1.11 nM and 31.6 nM, respectively. In addition, the koff in the experiment with AAV9 [4] came to 0.0052 s⁻¹; with AAV8 [5] it was 0.00021 s⁻¹; in the experiment with AAV5 [6] it was 0.00412 s⁻¹. For the same molecule, the kon with AAV9 [4] turned out to be 142000 M⁻¹ s⁻¹; with AAV8 [5] it was 188000 M⁻¹ s⁻¹; in the experiment with AAV5 [6], 130000 M⁻¹ s⁻¹.

B4: A4-113 (VHH)
VHH: B3 VHH with I22V, I27R, P41G, A53G, A73T, T83S, V99I, I109L
In the experiment with AAV9 [4], B4 came in with a Kd of 52.5 nM, a koff of 0.00051 s⁻¹ and a kon of 9720 M⁻¹ s⁻¹. In the experiment with AAV8 [5], this molecule came in with a Kd of 3.25 nM, a koff of 2e-05 s⁻¹ and a kon of 6150 M⁻¹ s⁻¹. In the experiment with AAV5 [6], this molecule showed a Kd of 218 nM, a koff of 0.00145 s⁻¹ and a kon of 6660 M⁻¹ s⁻¹.

B5: A4-001 (VHH)
VHH: VQLQESGGGLVQPGGSLRLSCAASGRSFSINTMGWYRQAPGKQRELVATVTRGGSTNYAGSVKGRFTISRDNAKNTVYLQMNSLRPEDTAVYYCHIDEVRQSSWTTSNIWGQGTQVTVSS
With B5, the dissociation constant (Kd) amounted to 1.06 nM with AAV2, 6.47 nM in the experiment with AAV5 [7], 142 nM with AAV9 [8] and 3.64 nM with AAV8 [9]. Further, the off-rate constant (koff) with AAV2 was 6.35e-05 s⁻¹; in the experiment with AAV5 [7] it was 0.00098 s⁻¹; with AAV9 [8] it was 0.0116 s⁻¹; with AAV8 [9], 0.000669 s⁻¹. The kon is 60100 M⁻¹ s⁻¹ in the experiment with AAV2, 151000 M⁻¹ s⁻¹ in the experiment with AAV5 [7], 81600 M⁻¹ s⁻¹ in the experiment with AAV9 [8] and 184000 M⁻¹ s⁻¹ with AAV8 [9].

B6: A4-012 (VHH)
VHH: B5 VHH with L10A, P13A, R26S, S27I, T32S, S55N, I96V, Q101E, I109L
For the molecule B6, the Kd was 1180 nM with AAV2, 18.6 nM in the experiment with AAV5 [7], 672 nM with AAV9 [8] and 324 nM with AAV8 [9]. Further, the koff in the experiment with AAV2 stood at 0.0554 s⁻¹; with AAV5 [7], 0.00173 s⁻¹; in the experiment with AAV9 [8], 0.0694 s⁻¹; in the experiment with AAV8 [9], 0.00417 s⁻¹. Also, the kon came out at 47000 M⁻¹ s⁻¹ in the experiment with AAV2, 93100 M⁻¹ s⁻¹ with AAV5 [7], 103000 M⁻¹ s⁻¹ with AAV9 [8] and 12900 M⁻¹ s⁻¹ in the experiment with AAV8 [9].

B7: A4-046 (VHH)
VHH: B5 VHH with R26S, S27R, G60D, I96V, I109L
For B7, the Kd with AAV2 worked out at 48.8 nM; in the experiment with AAV5 [7] it was 55.3 nM; in the experiment with AAV9 [8], 16.1 nM; with AAV8 [9] it was 37.6 nM. Further, the koff with AAV2 stood at 0.00725 s⁻¹; in the experiment with AAV5 [7], 0.00933 s⁻¹; in the experiment with AAV9 [8] it was 0.00269 s⁻¹; with AAV8 [9] it was 0.00455 s⁻¹. Also, the kon stood at 148000 M⁻¹ s⁻¹ with AAV2, 169000 M⁻¹ s⁻¹ in the experiment with AAV5 [7], 167000 M⁻¹ s⁻¹ with AAV9 [8] and 121000 M⁻¹ s⁻¹ in the experiment with AAV8 [9].

B8: A4-032 (VHH)
VHH: B5 VHH with A22V, R26S, G53D, G60N, I96V, I109L
As for B8, the Kd was determined as 2.53 nM in the experiment with AAV2, 6.7 nM in the experiment with AAV5 [7], 16.4 nM with AAV9 [8] and 12.8 nM with AAV8 [9]. The koff with AAV2 is 0.0004 s⁻¹; in the experiment with AAV5 [7], 0.0009 s⁻¹; in the experiment with AAV9 [8], 0.00108 s⁻¹; with AAV8 [9], 0.00169 s⁻¹. For the same molecule, the kon was 158000 M⁻¹ s⁻¹ with AAV2, 134000 M⁻¹ s⁻¹ in the experiment with AAV5 [7], 65900 M⁻¹ s⁻¹ in the experiment with AAV9 [8] and 132000 M⁻¹ s⁻¹ with AAV8 [9].

B9: A4-024 (VHH)
VHH: B5 VHH with R26S, S27N, S29R, G60D, A73P, I96V, Q101E, I109L
As for B9, the Kd with AAV2 was determined as 639 nM; with AAV5 [7], 35.5 nM; with AAV9 [8], 251 nM; with AAV8 [9], 209 nM. Also, the koff with AAV2 was 0.00069 s⁻¹; with AAV5 [7], 0.00013 s⁻¹; with AAV9 [8], 0.00173 s⁻¹; with AAV8 [9] it was 0.00148 s⁻¹. Besides, the kon with AAV5 [7] is 3670 M⁻¹ s⁻¹; in the experiment with AAV9 [8] it was 6900 M⁻¹ s⁻¹; in the experiment with AAV8 [9] it was 7080 M⁻¹ s⁻¹.

B10: A4-034 (VHH)
VHH: B5 VHH with S27G, T49A, S55T, G60D, I96V, I109L
On to B10, for which the Kd with AAV2 was 3.36 nM; with AAV5 [7], 12.2 nM; in the experiment with AAV9 [8], 6.8 nM; in the experiment with AAV8 [9] it was 7.84 nM. Also, the koff came out at 0.00066 s⁻¹ with AAV2, 0.00021 s⁻¹ in the experiment with AAV5 [7], 0.00129 s⁻¹ with AAV9 [8] and 0.00047 s⁻¹ with AAV8 [9]. Besides, the kon worked out at 196000 M⁻¹ s⁻¹ in the experiment with AAV2, 17200 M⁻¹ s⁻¹ with AAV5 [7], 190000 M⁻¹ s⁻¹ with AAV9 [8] and 59900 M⁻¹ s⁻¹ in the experiment with AAV8 [9].

B11: A4-044 (VHH)
VHH: B5 VHH with R26S, S55V, G60D, I96V, I109L
As to B11, the Kd in the experiment with AAV2 stood at 13.1 nM; in the experiment with AAV5 [7], 7.47 nM; with AAV9 [8] it was 13.1 nM; with AAV8 [9] it was 1.52 nM. The koff came out at 0.00069 s⁻¹ with AAV2, 0.00137 s⁻¹ with AAV5 [7], 0.00188 s⁻¹ with AAV9 [8] and 0.00024 s⁻¹ in the experiment with AAV8 [9]. Besides, the kon with AAV2 was 52900 M⁻¹ s⁻¹; with AAV5 [7] it was 183000 M⁻¹ s⁻¹; with AAV9 [8] it was 143000 M⁻¹ s⁻¹; in the experiment with AAV8 [9], 158000 M⁻¹ s⁻¹.

B12: A4-021 (VHH)
VHH: B5 VHH with P13A, R26S, S27T, V50I, S55N, G60D, I96V
On to B12, for which the Kd in the experiment with AAV2 came out at 0.798 nM; in the experiment with AAV5 [7], 7.81 nM; in the experiment with AAV9 [8], 1.87 nM; with AAV8 [9], 7.41 nM. The koff came out at 4.37e-05 s⁻¹ with AAV2, 0.00094 s⁻¹ with AAV5 [7], 0.00014 s⁻¹ with AAV9 [8] and 0.00155 s⁻¹ with AAV8 [9]. In addition, the kon in the experiment with AAV2 turned out to be 54800 M⁻¹ s⁻¹; with AAV5 [7] it was 120000 M⁻¹ s⁻¹; with AAV9 [8], 74700 M⁻¹ s⁻¹; in the experiment with AAV8 [9], 209000 M⁻¹ s⁻¹.

B13: A4-038 (VHH)
VHH: B5 VHH with R26S, S27H, G60N, I96L, I109L
In the case of B13, the Kd with AAV2 was 0.704 nM; in the experiment with AAV5 [7], 1.57 nM; with AAV9 [8] it was 7.29 nM; with AAV8 [9], 69.5 nM. The koff with AAV2 came out at 0.00014 s⁻¹; in the experiment with AAV5 [7], 0.00028 s⁻¹; in the experiment with AAV9 [8], 0.0011 s⁻¹; in the experiment with AAV8 [9], 0.0005 s⁻¹. Also, the kon in the experiment with AAV2 amounted to 199000 M⁻¹ s⁻¹; with AAV5 [7] it was 178000 M⁻¹ s⁻¹; with AAV9 [8] it was 151000 M⁻¹ s⁻¹; with AAV8 [9] it was 7190 M⁻¹ s⁻¹.

B14: A4-039 (VHH)
VHH: B5 VHH with R26S, S27G, Q43W, I109L
B14: the Kd came out at 39.5 nM in the experiment with AAV2, 246 nM with AAV5 [7], 360 nM in the experiment with AAV9 [8] and 281 nM with AAV8 [9]. Besides, the koff turned out to be 0.00015 s⁻¹ with AAV2, 0.00182 s⁻¹ in the experiment with AAV5 [7], 0.001 s⁻¹ with AAV9 [8] and 0.00177 s⁻¹ in the experiment with AAV8 [9]. Besides, the kon in the experiment with AAV2 was 3800 M⁻¹ s⁻¹; with AAV5 [7] it was 7410 M⁻¹ s⁻¹; with AAV9 [8], 2780 M⁻¹ s⁻¹; in the experiment with AAV8 [9], 6290 M⁻¹ s⁻¹.

B15: A4-011 (VHH)
VHH: B5 VHH with P13A, R26S, S27I, T32S, S55N, I96V, Q101E, I109L
Take B15: the Kd in the experiment with AAV2 turned out to be 284 nM; with AAV5 [7], 29.6 nM; with AAV9 [8], 132 nM; in the experiment with AAV8 [9], 30.4 nM. In addition, the koff with AAV2 worked out at 0.0462 s⁻¹; in the experiment with AAV5 [7], 0.00028 s⁻¹; in the experiment with AAV9 [8], 0.0582 s⁻¹; in the experiment with AAV8 [9], 0.00272 s⁻¹. Besides, the kon with AAV2 amounted to 163000 M⁻¹ s⁻¹; with AAV5 [7], 9460 M⁻¹ s⁻¹; with AAV9 [8], 439000 M⁻¹ s⁻¹; in the experiment with AAV8 [9], 89400 M⁻¹ s⁻¹.

B16: A4-048 (VHH)
VHH: B5 VHH with R26S, S27M, S55N, I96V, I109L
As for B16, the Kd in the experiment with AAV2 came out at 155 nM; in the experiment with AAV5 [7], 54.4 nM; with AAV9 [8], 399 nM; with AAV8 [9], 146 nM. In addition, the koff in the experiment with AAV2 worked out at 0.00137 s⁻¹; in the experiment with AAV5 [7] it was 0.00051 s⁻¹; with AAV9 [8], 0.0013 s⁻¹; with AAV8 [9], 0.00031 s⁻¹. Moreover, the kon with AAV2 came out at 8850 M⁻¹ s⁻¹; with AAV5 [7], 9380 M⁻¹ s⁻¹; in the experiment with AAV9 [8] it was 3260 M⁻¹ s⁻¹; in the experiment with AAV8 [9] it was 2130 M⁻¹ s⁻¹.

As usually defined, the Kd is the free concentration of one partner at which half of the binding sites on the other are occupied at equilibrium, for simple one-to-one binding. The low end stands for higher affinity, the high end for lower affinity. The term koff denotes the rate constant with which the complex falls apart. A low value points to slow dissociation. As a reminder, the kon is the rate constant with which the complex forms.
